These are literature values, as cited in PMC6952583 (Chembiochem : a European journal of chemical biology, 2019).

The series concerns the target ComD2 receptor (Streptococcus pneumoniae serotype 4, UniProt A0A0H2US84). The note with it: read-out: ComD2 EC50; TIGR4pcomX::lacZ reporter strain; ref [20].

The term EC50 denotes the concentration giving half of the maximal effect. For the substance “CSP2(15): truncated version of CSP2, starting scaffold (EMRISRIILDFLFLR)”, the EC50 was 21.9 nM.
